According to publication PMC10603135, “Phosphorylation-dependent pseudokinase domain dimerization drives full-length MLKL oligomerization” (Nature Communications, 2023):
Values belong to the molecule of their own block, whether it stands above or below them.

What was measured:
[1] = molecular target: MLKL (mixed lineage kinase domain-like) pseudokinase domain, 190-471 (UniProt Q8NB16); experiment: size-exclusion chromatography; conditions: reference: p-MLKL pseudokinase domain; sites T357,S358,T355,S360
[2] = molecular target: full-length human MLKL (residues 2-471) T357E/S358E mutant (human) (UniProt Q8NB16); experiment: SEC; full-length MLKL (WT or T357E/S358E) co-expressed with RIPK3 kinase domain in Sf21, purified by GST on MLKL, tag cleaved, HiLoad Superdex 200 in SEC buffer; fractions on reducing SDS-PAGE
[3] = molecular target: phosphorylated human MLKL (p-MLKL) pseudokinase domain (190-471) (human) (UniProt Q8NB16); experiment: SEC; purified pseudokinase domain on Superdex 200 in 20 mM HEPES pH 7.5, 200 mM NaCl, 5% v/v glycerol
[4] = molecular target: phosphorylated human MLKL (p-MLKL) pseudokinase domain (190-471) (human) (UniProt Q8NB16); experiment: SEC-SAXS; p-MLKL pseudokinase domain, 40 uL of 7.2 mg/mL, inline Superdex 200 Increase 5/150, 0.2 M NaCl, 20 mM HEPES pH 7.5, 5% v/v glycerol, 283 K
[5] = molecular target: unphosphorylated human MLKL pseudokinase domain (residues 190-471) (human) (UniProt Q8NB16); experiment: SEC-SAXS; MLKL pseudokinase domain:Mb27 complex pre-purified on Superdex 75, 50 uL of 5.6 mg/mL, inline Superdex 200 Increase 5/150, 0.2 M NaCl, 20 mM HEPES pH 7.5, 5% v/v glycerol, 283 K
[6] = molecular target: the molecule itself; experiment: SEC; full-length MLKL expressed alone in Sf21, purified, HiLoad Superdex 200 in SEC buffer
[7] = molecular target: the molecule itself; experiment: SEC; full-length MLKL (WT or T357E/S358E) co-expressed with RIPK3 kinase domain in Sf21, purified by GST on MLKL, tag cleaved, HiLoad Superdex 200 in SEC buffer; fractions on reducing SDS-PAGE

Molecule: MLKL (mixed lineage kinase domain-like) pseudokinase domain, 190-471 (from UniProt Q8NB16) λ phosphatase treated p-MLKL
binding against the reference [1]: lost

Molecule: human RIPK3 kinase domain (residues 1-316; C3S, C110A), co-expressed with full-length MLKL (from UniProt Q9Y572 1-316) (domain or fragment)
stoichiometry N (RIPK3 per MLKL (1:1)) [2]: 1

B1: recombinant full-length human MLKL (residues 2-471), wild-type (natural protein, UniProt Q8NB16 2-471, looked up)
chain: ENLKHIITLGQVIHKRCEEMKYCKKQCRRLGHRVLGLIKPLEMLQDQGKRSVPSEKLTTAMNRFKAALEEANGEIEKFSNRSNICRFLTASQDKILFKDVNRKLSDVWKELSLLLQVEQRMPVSPISQGASWAQEDQQDADEDRRAFQMLRRDNEKIEASLRRLEINMKEIKETLRQYLPPKCMQEIPQEQIKEIKKEQLSGSPWILLRENEVSTLYKGEYHRAPVAIKVFKKLQAGSIAIVRQTFNKEIKTMKKFESPNILRIFGICIDETVTPPQFSIVMEYCELGTLRELLDREKDLTLGKRMVLVLGAARGLYRLHHSEAPELHGKIRSSNFLVTQGYQVKLAGFELRKTQTSMSLGTTREKTDRVKSTAYLSPQELEDVFYQYDVKSEIYSFGIVLWEIATGDIPFQGCNSEKIRKLVAVKRQQEPLGEDCPSELREIIDECRAHDPSVRPSVDEILKKLSTFSK
notes: human MLKL, called full-length, residues 2-471; Expressed alone it elutes primarily as monomers with a smaller proportion of tetramers; with Mb27 all as tetramers; also called full-length MLKL; MLKL alone; source: Sf21 insect cells, expressed alone or co-expressed with Mb27, purified (glutathione resin, TEV cleavage, SEC); not shown: GST, N-terminal, cleaved
stoichiometry N [6]: 4

B2: full-length human p-MLKL tetramer (wild-type MLKL 2-471 co-expressed with RIPK3 kinase domain) (natural protein, UniProt Q8NB16 2-471, looked up)
chain: B1 chain
modifications: phosphorylated by co-expressed RIPK3 (sites not printed for the full-length protein); disulfide-linked via C184
notes: human MLKL, called full-length, residues 2-471; The purified tetramer carries sub-stoichiometric RIPK3 kinase domain; also called wild-type p-MLKL tetramer; MLKL (WT):RIPK3; source: Sf21 insect cells, co-expressed with RIPK3 kinase domain, purified (glutathione resin, TEV cleavage, SEC); not shown: GST, N-terminal, cleaved
stoichiometry N [7]: 4

Now from value to molecule:

stoichiometry N [3]: 2 | stoichiometry N [4]: 2
Molecule: phosphorylated human MLKL (p-MLKL) pseudokinase domain (190-471) (from UniProt Q8NB16 190-471) (domain or fragment)

stoichiometry N [5]: 2
Molecule: unphosphorylated human MLKL pseudokinase domain (residues 190-471) (from UniProt Q8NB16 190-471) (domain or fragment)
